Holding throughout (details): protein: recombinant; tags: His tag removed, GSRM left; label: 5' 32P (PNK)
One data set concerns the target T1, hPIF1HD N495A (human, UniProt Q9H611 206-620, N495A).
T1 sequence: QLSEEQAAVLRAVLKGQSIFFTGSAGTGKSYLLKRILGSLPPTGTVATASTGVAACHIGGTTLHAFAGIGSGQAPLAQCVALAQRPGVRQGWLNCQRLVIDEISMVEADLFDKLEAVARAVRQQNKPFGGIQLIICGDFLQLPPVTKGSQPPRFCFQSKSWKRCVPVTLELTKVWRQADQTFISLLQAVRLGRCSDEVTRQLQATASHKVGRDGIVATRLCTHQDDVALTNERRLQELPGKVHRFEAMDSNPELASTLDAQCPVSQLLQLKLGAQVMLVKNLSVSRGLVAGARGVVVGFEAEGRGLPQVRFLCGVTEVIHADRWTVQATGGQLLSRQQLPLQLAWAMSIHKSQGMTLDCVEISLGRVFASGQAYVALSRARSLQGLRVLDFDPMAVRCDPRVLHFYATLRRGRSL
Nature of the data set: EMSA; no nucleotide; 20 mM HEPES-NaOH pH 7.5 (Results say pH 7.2), 135 mM NaCl, 5% glycerol, 1 mM DTT, 1 mg/ml BSA, 20 min at 20 C; 0.4 nM T(35); G4 assay: 0.1 nM G4 DNA, 2% PEG 8000 instead of glycerol, 5 uM T(35) competitor. (In general: A gel shift assay detects complexes by their altered migration in electrophoresis.)

The target in another data set is T2, hPIF1HD K556A (human, UniProt Q9H611 206-620, K556A).
T2 sequence: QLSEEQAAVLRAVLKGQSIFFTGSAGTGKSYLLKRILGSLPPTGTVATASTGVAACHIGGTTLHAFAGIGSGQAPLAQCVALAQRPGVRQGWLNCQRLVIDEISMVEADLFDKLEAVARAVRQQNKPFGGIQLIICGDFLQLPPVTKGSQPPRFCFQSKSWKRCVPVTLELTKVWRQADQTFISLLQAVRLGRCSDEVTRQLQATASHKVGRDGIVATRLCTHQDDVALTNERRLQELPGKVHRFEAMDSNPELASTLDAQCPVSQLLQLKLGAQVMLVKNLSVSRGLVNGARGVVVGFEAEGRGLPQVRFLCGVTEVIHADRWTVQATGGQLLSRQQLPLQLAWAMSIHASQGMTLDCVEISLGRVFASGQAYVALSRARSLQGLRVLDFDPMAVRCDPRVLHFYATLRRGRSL
Nature of the data set: EMSA; no nucleotide; greatest defect; 20 mM HEPES-NaOH pH 7.5 (Results say pH 7.2), 135 mM NaCl, 5% glycerol, 1 mM DTT, 1 mg/ml BSA, 20 min at 20 C; 0.4 nM T(35); G4 assay: 0.1 nM G4 DNA, 2% PEG 8000 instead of glycerol, 5 uM T(35) competitor.

Another data set has as its target T3, hPIF1HD R290A (human, UniProt Q9H611 206-620, R290A).
T3 sequence: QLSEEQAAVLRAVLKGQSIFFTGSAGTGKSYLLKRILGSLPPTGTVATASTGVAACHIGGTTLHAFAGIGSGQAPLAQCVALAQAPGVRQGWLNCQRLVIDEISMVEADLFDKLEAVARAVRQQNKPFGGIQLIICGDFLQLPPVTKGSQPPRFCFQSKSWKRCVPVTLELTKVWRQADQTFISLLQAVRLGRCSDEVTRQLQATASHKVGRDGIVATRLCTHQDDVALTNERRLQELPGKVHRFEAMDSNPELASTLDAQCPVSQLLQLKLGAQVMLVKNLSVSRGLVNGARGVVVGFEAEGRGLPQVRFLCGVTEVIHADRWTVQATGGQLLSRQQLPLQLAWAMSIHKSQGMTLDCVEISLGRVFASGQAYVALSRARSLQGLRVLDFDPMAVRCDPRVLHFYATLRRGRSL
Nature of the data set: EMSA; no nucleotide; apparent, near saturation not reached; 20 mM HEPES-NaOH pH 7.5 (Results say pH 7.2), 135 mM NaCl, 5% glycerol, 1 mM DTT, 1 mg/ml BSA, 20 min at 20 C; 0.4 nM T(35); G4 assay: 0.1 nM G4 DNA, 2% PEG 8000 instead of glycerol, 5 uM T(35) competitor.

On to TTTTTTTTTTTTTTTTTTTTTTTTTTTTTTTTTTT (ssDNA) [poly-T(35)], for which the binding signal in the data set with hPIF1HD N495A and in the data set with hPIF1HD K556A was > 50 fold decrease in affinity vs WT each time. In addition, the Kd in the data set with hPIF1HD R290A is about 40.4 nM.
